The source of these data is patent US6545137.

This assay has as its target low-density lipoprotein (LDL), 125I-labelled. Nature of the assay: cell-based or functional assay.

In turn, “human LRP5 (LDL-receptor related protein-5), isoform 1 (from UniProt O75197 32-1615)” gave an LDL uptake (40 ug/ml 125I-LDL, 4 h, 37 C, FH fibroblasts infected with LRP5 adenovirus) of 60 % increase.

Consider “human LDL-receptor (from UniProt P01130 22-860)”, for which the LDL uptake (40 ug/ml 125I-LDL, 4 h, 37 C, FH fibroblasts infected with LDL-receptor adenovirus) came to 20 fold.
